In patent US20090099029:

T1: Bovine, dephosphorylated, Myelin Basic Protein (MBP), P02687
T1 chain: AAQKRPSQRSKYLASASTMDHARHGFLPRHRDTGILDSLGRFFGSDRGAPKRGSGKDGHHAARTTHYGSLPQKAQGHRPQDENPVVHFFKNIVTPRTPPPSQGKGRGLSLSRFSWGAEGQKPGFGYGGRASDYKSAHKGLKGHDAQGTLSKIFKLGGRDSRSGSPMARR


Biological target: T1, Bovine, dephosphorylated, Myelin Basic …

| Protein | MBP Kinase Activity |
| --- | --- |
| GRK6 (protein) MELENIVANTVLLKAREGGGGNRKGKSKKWRQMLQFPHISQCEELRLSLERDYHSLCERQPIGRLLFREFCATRPELSRCVAFLDGVAEYEVTPDDKRKACGRQLTQNFLSHTGPDLIPEVPRQLVTNCTQRLEQGPCKDLFQELTRLTHEYLSVAPFADYLDSIYFNRFLQWKWLERQPVTKNTFRQYRVLGKGGFGEVCACQVRATGKMYACKKLEKKRIKKRKGEAMALNEKQILEKVNSRFVVSLAYAYETKDALCLVLTLMNGGDLKFHIYHMGQAGFPEARAVFYAAEICCGLEDLHRERIVYRDLKPENILLDDHGHIRISDLGLAVHVPEGQTIKGRVGTVGYMAPEVVKNERYTFSPDWWALGCLLYEMIAGQSPFQQRKKKIKREEVERLVKEVPEEYSERFSPQARSLCSQLLCKDPAERLGCRGGSAREVKEHPLFKKLNFKRLGAGMLEPPFKPDPQAIYCKDVLDIEQFSTVKGVELEPTDQDFYQKFATGSVPIPWQNEMVETECFQELNVFGLDGSVPPDLDWKGQPPAPPKKGLLQRLFSRQDCCGNCSDSEEELPTRL | Negative |
| GSK3A (protein) MSGGGPSGGGPGGSGRARTSSFAEPGGGGGGGGGGPGGSASGPGGTGGGKASVGAMGGGVGASSSGGGPGGSGGGGSGGPGAGTSFPPPGVKLGRDSGKVTTVVATLGQGPERSQEVAYTDIKVIGNGSFGVVYQARLAETRELVAIKKVLQDKRFKNRELQIMRKLDHCNIVRLRYFFYSSGEKKDELYLNLVLEYVPETVYRVARHFTKAKLTIPILYVKVYMYQLFRSLAYIHSQGVCHRDIKPQNLLVDPDTAVLKLCDFGSAKQLVRGEPNVSYICSRYYRAPELIFGATDYTSSIDVWSAGCVLAELLLGQPIFPGDSGVDQLVEIIKVLGTPTREQIREMNPNYTEFKFPQIKAHPWTKVFKSRTPPEAIALCSSLLEYTPSSRLSPLEACAHSFFDELRCLGTQLPNNRPLPPLFNFSAGELSIQPSLNAILIPPHLRSPAGTTTLTPSSQALTETPTSSDWQSTDATPTLTNSS | Weak |
| DYRK3 (protein) MGGTARGPGRKDAGPPGAGLPPQQRRLGDGVYDTFMMIDETKCPPCSNVLCNPSEPPPPRRLNMTTEQFTGDHTQHFLDGGEMKVEQLFQEFGNRKSNTIQSDGISDSEKCSPTVSQGKSSDCLNTVKSNSSSKAPKVVPLTPEQALKQYKHHLTAYEKLEIINYPEIYFVGPNAKKRHGVIGGPNNGGYDDADGAYIHVPRDHLAYRYEVLKIIGKGSFGQVARVYDHKLRQYVALKMVRNEKRFHRQAAEEIRILEHLKKQDKTGSMNVIHMLESFTFRNHVCMAFELLSIDLYELIKKNKFQGFSVQLVRKFAQSILQSLDALHKNKIIHCDLKPENILLKHHGRSSTKVIDFGSSCFEYQKLYTYIQSRFYRAPEIILGSRYSTPIDIWSFGCILAELLTGQPLFPGEDEGDQLACMMELLGMPPPKLLEQSKRAKYFINSKGIPRYCSVTTQADGRVVLVGGRSRRGKKRGPPGSKDWGTALKGCDDYLFIEFLKRCLHWDPSARLTPAQALRHPWISKSVPRPLTTIDKVSGKRVVNPASAFQGLGSKLPPVVGIANKLKANLMSETNGSIPLCSVLPKLIS | Negative |
| GRK7 (protein) MVDMGALDNLIANTAYLQARKPSDCDSKELQRRRRSLALPGLQGCAELRQKLSLNFHSLCEQQPIGRRLFRDFLATVPTFRKAATFLEDVQNWELAEEGPTKDSALQGLVATCASAPAPGNPQPFLSQAVATKCQAATTEEERVAAVTLAKAEAMAFLQEQPFKDFVTSAFYDKFLQWKLFEMQPVSDKYFTEFRVLGKGGFGEVCAVQVKNTGKMYACKKLDKKRLKKKGGEKMALLEKEILEKVSSPFIVSLAYAFESKTHLCLVMSLMNGGDLKFHIYNVGTRGLDMSRVIFYSAQIACGMLHLHELGIVYRDMKPENVLLDDLGNCRLSDLGLAVEMKGGKPITQRAGTNGYMAPEILMEKVSYSYPVDWFAMGCSIYEMVAGRTPFKDYKEKVSKEDLKQRTLQDEVKFQHDNFTEEAKDICRLFLAKKPEQRLGSREKSDDPRKHHFFKTINFPRLEAGLIEPPFVPDPSVVYAKDIAEIDDFSEVRGVEFDDKDKQFFKNFATGAVPIAWQEEIIETGLFEELNDPNRPTGCEEGNSSKSGVCLLL | Negative |
| IKBKB (protein) MSWSPSLTTQTCGAWEMKERLGTGGFGNVIRWHNQETGEQIAIKQCRQELSPRNRERWCLEIQIMRRLTHPNVVAARDVPEGMQNLAPNDLPLLAMEYCQGGDLRKYLNQFENCCGLREGAILTLLSDIASALRYLHENRIIHRDLKPENIVLQQGEQRLIHKIIDLGYAKELDQGSLCTSFVGTLQYLAPELLEQQKYTVTVDYWSFGTLAFECITGFRPFLPNWQPVQWHSKVRQKSEVDIVVSEDLNGTVKFSSSLPYPNNLNSVLAERLEKWLQLMLMWHPRQRGTDPTYGPNGCFKALDDILNLKLVHILNMVTGTIHTYPVTEDESLQSLKARIQQDTGIPEEDQELLQEAGLALIPDKPATQCISDGKLNEGHTLDMDLVFLFDNSKITYETQISPRPQPESVSCILQEPKRNLAFFQLRKVWGQVWHSIQTLKEDCNRLQQGQRAAMMNLLRNNSCLSKMKNSMASMSQQLKAKLDFFKTSIQIDLEKYSEQTEFGITSDKLLLAWREMEQAVELCGRENEVKLLVERMMALQTDIVDLQRSPMGRKQGGTLDDLEEQARELYRRLREKPRDQRTEGDSQEMVRLLLQAIQSFEKKVRVIYTQLSKTVVCKQKALELLPKVEEVVSLMNEDEKTVVRLQEKRQKELWNLLKIACSKVRGPVSGSPDSMNASRLSQPGQLMSQPSTASNSLPEPAKKSEELVAEAHNLCTLLENAIQDTVREQDQSFTALDWSWLQTEEEEHSCLEQAS | Weak |
| EPHA4 (protein) SRRRSKYSKAKQEADEEKHLNQGVRTYVDPFTYEDPNQAVREFAKEIDASCIKIEKVIGVGEFGEVCSGRLKVPGKREICVAIKTLKAGYTDKQRRDFLSEASIMGQFDHPNIIHLEGVVTKCKPVMIITEYMENGSLDAFLRKNDGRFTVIQLVGMLRGIGSGMKYLSDMSYVHRDLAARNILVNSNLVCKVSDFGMSRVLEDDPEAAYTTRGGKIPIRWTAPEAIAYRKFTSASDVWSYGIVMWEVMSYGERPYWDMSNQDVIKAIEEGYRLPPPMDCPIALHQLMLDCWQKERSDRPKFGQIVNMLDKLIRNPNSLKRTGTESSRPNTALLDPSSPEFSAVVSVGDWLQAIKMDRYKDNFTAAGYTTLEAVVHVNQEDLARIGITAITHQNKILSSVQAMRTQMQQMHGRMVPV | Strong |
| GRK4 (protein) MELENIVANSLLLKARQGGYGKKSGRSKKWKEILTLPPVSQCSELRHSIEKDYSSLCDKQPIGRRLFRQFCDTKPTLKRHIEFLDAVAEYEVADDEDRSDCGLSILDRFFNDKLAAPLPEIPPDVVTECRLGLKEENPSKKAFEECTRVAHNYLRGEPFEEYQESSYFSQFLQWKWLERQPVTKNTFRHYRVLGKGGFGEVCACQVRATGKMYACKKLQKKRIKKRKGEAMALNEKRILEKVQSRFVVSLAYAYETKDALCLVLTIMNGGDLKFHIYNLGNPGFDEQRAVFYAAELCCGLEDLQRERIVYRDLKPENILLDDRGHIRISDLGLATEIPEGQRVRGRVGTVGYMAPEVVNNEKYTFSPDWWGLGCLIYEMIQGHSPFKKYKEKVKWEEVDQRIKNDTEEYSEKFSEDAKSICRMLLTKNPSKRLGCRGEGAAGVKQHPVFKDINFRRLEANMLEPPFCPDPHAVYCKDVLDIEQFSVVKGIYLDTADEDFYARFATGCVSIPWQNEMIESGCFKDINKSESEEALPLDLDKNIHTPVSRPNRGFFYRLFRRGGCLTMVPSEKEVEPKQC | Negative |
